Laboratory results published in US20180050011A1.

T1: S100A9 (human) (UniProt P06702)
T1 sequence (looked up): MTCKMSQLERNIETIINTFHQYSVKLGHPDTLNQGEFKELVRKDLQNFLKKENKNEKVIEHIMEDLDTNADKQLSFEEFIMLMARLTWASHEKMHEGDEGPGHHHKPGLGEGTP

B1: pyrin domain-only protein (POP)-1 (protein, UniProt Q8WXC3 1-89, looked up)
chain: MGTKREAILKVLENLTPEELKKFKMKLGTVPLREGFERIPRGALGQLDIVDLTDKLVASYYEDYAAELVVAVLRDMRMLEEAARLQRAA

What was measured:
S100A9 (human) = target: T1, S100A9 (human); test: cell-based or functional assay
[1] = target: apoptosis-associated speck-like protein containing a caspase-recruitment domain (ASC) (human) (UniProt Q9ULZ3); test: cell-based or functional assay
Sequence of apoptosis-associated speck-like protein containing a caspase-recruitment domain (ASC) (human) (Q9ULZ3 whole entry, the tested form may be a part): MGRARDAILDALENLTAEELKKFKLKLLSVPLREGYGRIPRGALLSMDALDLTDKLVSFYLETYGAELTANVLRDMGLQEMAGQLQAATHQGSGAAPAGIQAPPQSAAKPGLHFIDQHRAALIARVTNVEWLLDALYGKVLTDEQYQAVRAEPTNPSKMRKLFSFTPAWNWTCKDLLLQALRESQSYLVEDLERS

| Molecule | colony-forming capacity of MDS BM-MNC (S100A9 (human)) [fold] | reduction of the fraction of pyroptotic cells, CD33+ cells (MDS BM-MNC in autologous BM plasma) (S100A9 (human)) [%] | reduction of the fraction of pyroptotic cells, CD71+ cells (MDS BM-MNC in autologous BM plasma) (S100A9 (human)) [%] | reduction of the fraction of pyroptotic cells, progenitor cells (MDS BM-MNC in autologous BM plasma) (S100A9 (human)) [%] | reduction of the fraction of pyroptotic cells, stem cells (MDS BM-MNC in autologous BM plasma) (S100A9 (human)) [%] | NLRP3 activation, as measured by ASC oligomerization (flow cytometry, U2AF1-S34F cells transfected with POP-1) [1] [% reduction] |
| --- | --- | --- | --- | --- | --- | --- |
| S100A9 high-affinity chimeric (CD33-IgG1) decoy receptor (from UniProt P20138 18-259) (Fc fusion) | < 6.6 | 68 | 64 | 23 | 44 | – |
| B1 | – | – | – | – | – | 40 |
